US20120100140A1

Columns and labels:
CD16 (FcγRIIIa V158) [1] = target: CD16 (FcγRIIIa V158) (UniProt P08637); test: solution affinity SPR: inhibition of CD16 binding to immobilized IgG1 MAb
CD64 (FcγRI) [2] = target: CD64 (FcγRI) (UniProt P12314); test: solution affinity SPR: antibody titrated into CD64, inhibition of CD64 binding to immobilized IgG1 MAb; average of two titrations
CD64 (FcγRI) [3] = target: CD64 (FcγRI) (UniProt P12314); test: solution affinity SPR: inhibition of CD64 binding to immobilized IgG1 MAb
CD16 (FcγRIIIa V158) [4] = target: CD16 (FcγRIIIa V158) (UniProt P08637); test: solution affinity SPR: antibody titrated into CD16, inhibition of CD16 binding to immobilized IgG1 MAb; average of two titrations
CD32a = CD32a (UniProt P12318); test: solution affinity SPR: inhibition of CD32a binding to immobilized IgG1 MAb
Chain of CD32a (P12318 34-217 limits assumed): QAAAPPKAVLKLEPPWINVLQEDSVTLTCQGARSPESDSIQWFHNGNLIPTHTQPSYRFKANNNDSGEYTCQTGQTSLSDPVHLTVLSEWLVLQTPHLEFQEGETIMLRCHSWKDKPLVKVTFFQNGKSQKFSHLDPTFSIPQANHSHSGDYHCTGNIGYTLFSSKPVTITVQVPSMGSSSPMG

Chain of CD16 (FcγRIIIa V158) (P08637 17-208 F176V limits assumed): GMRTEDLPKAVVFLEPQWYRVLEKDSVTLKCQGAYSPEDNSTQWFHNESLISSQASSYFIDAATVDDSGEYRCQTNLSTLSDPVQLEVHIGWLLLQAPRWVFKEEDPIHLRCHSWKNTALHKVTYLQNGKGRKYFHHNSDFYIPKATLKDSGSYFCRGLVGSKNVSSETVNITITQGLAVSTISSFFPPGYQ
Chain of CD64 (FcγRI) (P12314 16-288 limits assumed): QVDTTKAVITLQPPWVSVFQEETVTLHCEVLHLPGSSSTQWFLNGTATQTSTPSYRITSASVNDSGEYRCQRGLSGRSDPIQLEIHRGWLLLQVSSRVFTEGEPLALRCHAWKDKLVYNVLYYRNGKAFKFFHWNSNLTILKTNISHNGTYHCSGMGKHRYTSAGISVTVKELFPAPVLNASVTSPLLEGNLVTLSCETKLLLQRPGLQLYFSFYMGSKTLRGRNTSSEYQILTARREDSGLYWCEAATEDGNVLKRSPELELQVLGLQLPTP

| IC50 (CD16 (FcγRIIIa V158) [1]) [µM] | IC50 (CD64 (FcγRI) [3]) [µM] | also measured | Substance |
| --- | --- | --- | --- |
| 1320 | – | – | EAG2476 (YC406-Fc; agly IgG4-Fc T299K, T307P, L309K, D399S, no Fab) (from UniProt P01861 99-325) |
| 6000 | – | – | EAG2478 (CN578-Fc; agly IgG1 Fc T299K, no Fab) (from UniProt P0DOX5 218-448) |
| 1320 | – | IC50 (CD64 (FcγRI) [2]): 1420 µM | CN578 (hu5c8 aglycosylated IgG1 T299K) (antibody) |
| – | 586 | – | EAG2377 (hu5c8 aglycosylated IgG1 T299N) (antibody) |
| – | 392 | – | EAG2390 (hu5c8 aglycosylated IgG1 T299P) (antibody) |
| – | 455 | – | EAG2389 (hu5c8 aglycosylated IgG1 T299Q) (antibody) |
| 105 | – | IC50 (CD16 (FcγRIIIa V158) [4]): 100 µM; IC50 (CD64 (FcγRI) [2]): 9.64 µM | IgG1 control antibody (hu5c8 wild-type glycosylated IgG1) |
| – | 5970 | – | EAG2378 (hu5c8 aglycosylated IgG1 T299R) (antibody) |
| – | 196 | IC50 (CD32a): 1280 µM | EAG2379 (hu5c8 aglycosylated IgG1 T299E) (antibody) |
| – | 345 | – | EAG2380 (hu5c8 aglycosylated IgG1 T299F) (antibody) |
| – | – | IC50 (CD64 (FcγRI) [2]): 205 µM | IgG1 T299A (hu5c8 aglycosylated IgG1) (antibody) |
